Test results from patent US12552876.

Target: HSA-Fuc-GM1 conjugate (human)
Assay: SPR (Biacore X), HSA-Fuc-GM1 conjugate amine-coupled to CM5 chip, antibody as analyte, bivalent analyte model

Sequence of HSA-Fuc-GM1 conjugate (human) (P02768 25-609): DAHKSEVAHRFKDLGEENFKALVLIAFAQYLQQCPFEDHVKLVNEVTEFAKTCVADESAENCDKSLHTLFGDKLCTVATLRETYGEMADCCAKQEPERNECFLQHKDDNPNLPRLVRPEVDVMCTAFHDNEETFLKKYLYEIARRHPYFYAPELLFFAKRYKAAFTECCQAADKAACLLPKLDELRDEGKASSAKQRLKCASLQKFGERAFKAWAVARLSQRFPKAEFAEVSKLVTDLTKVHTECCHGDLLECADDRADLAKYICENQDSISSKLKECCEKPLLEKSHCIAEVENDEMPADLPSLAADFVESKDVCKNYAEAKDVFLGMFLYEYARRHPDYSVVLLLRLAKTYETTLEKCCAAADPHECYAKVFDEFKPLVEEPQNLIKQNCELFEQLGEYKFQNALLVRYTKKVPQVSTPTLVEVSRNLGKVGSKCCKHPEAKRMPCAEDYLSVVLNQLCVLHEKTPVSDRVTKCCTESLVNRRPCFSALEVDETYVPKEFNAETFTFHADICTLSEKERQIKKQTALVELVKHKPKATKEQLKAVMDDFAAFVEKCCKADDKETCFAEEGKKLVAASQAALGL

Kd: 58 µM | koff: 0.117 s⁻¹ | kon: 2010 M⁻¹ s⁻¹
B1: mAb FL134.33 (antibody, V domains shown)
VH: AVQLQESGPDLVKPSQSLSLTCTVTGYSITSGYSWHWIRQFPGNKLEWVGYIHYRGNTNYNPSLKSRVSITRDTYKNQFFLQLNSLTTEDTATYYCAQEPVRNYAMDFWGQGTSVTVSS
VL: DIVMTQSPDTLSVTPGDRVSLSCRASQSISDDLHWYQQKSHESPRLLIKYVSQSISGIPSRFSGSGSRSDFTLTINSVEPEDVGLYYCQNGHGFPPTFGGGTKLEIK
